Laboratory results taken from PMC4666776.

How the values were obtained:
[1] = target: biotinylated nanobody S7 (llama (Lama glama)); test: ELISA
[2] = target: biotinylated nanobody S33 (llama (Lama glama)); test: ELISA

B1: recombinant human soluble epoxide hydrolase (enzyme)
chain: MTLRAAVFDLDGVLALPAVFGVLGRTEEALALPRGLLNDAFQKGGPEGATTRLMKGEITLSQWIPLMEENCRKCSETAKVCLPKNFSIKEIFDKAISARKINRPMLQAALMLRKKGFTTAILTNTWLDDRAERDGLAQLMCELKMHFDFLIESCQVGMVKPEPQIYKFLLDTLKASPSEVVFLDDIGANLKPARDLGMVTILVQDTDTALKELEKVTGIQLLNTPAPLPTSCNPSDMSHGYVTVKPRVRLHFVELGSGPAVCLCHGFPESWYSWRYQIPALAQAGYRVLAMDMKGYGESSAPPEIEEYCMEVLCKEMVTFLDKLGLSQAVFIGHDWGGMLVWYMALFYPERVRAVASLNTPFIPANPNMSPLESIKANPVFDYQLYFQEPGVAEAELEQNLSRTFKSLFRASDESVLSMHKVCEAGGLFVNSPEEPSLSRMVTEEEIQFYVQQFKKSGFRGPLNWYRNMERNWKWACKSLGRKILIPALMVTAEKDFVLVPQMSQHMEDWIPHLKRGHIEDCGHWTQMDKPTEVNQILIKWLDSDARNPPVVSKM
For B1, the SC50 (sEH at 50% signal saturation; detecting HA-tagged Nb S43) [1] was 3.97 ng/mL, the SC50 (sEH at 50% signal saturation; detecting Nb S16) [2] was 4100 ng/mL and the SC50 (sEH at 50% signal saturation; detecting Nb S49) [2] was 249 ng/mL.
